The target of test [1] is full-length WT METTL1, unlabeled (without WDR4) (human, UniProt Q9UBP6 1-276). Put plainly: NMR titration.
For test [2], the target named is full-length R109A/K111A METTL1, unlabeled (human, UniProt Q9UBP6 1-276, R109A | K111A). Put plainly: NMR titration.

Where a chain is given by its changes, count along the chain named. In names and notes the source's numbering stands.

B1: METTL1 1-75 (N-terminal segment of METTL1), isotope-labelled (domain or fragment, human, UniProt Q9UBP6 1-75, looked up)
chain: MAAETRNVAGAEAPPPQKRYYRQRAHSNPMADHTLRYPVKPEEMDWSELYPEFFAPLTQNQSHDDPKDKKEKRAQ
Consider B1, for which the binding result in test [1] and in test [2] was “binds” each time.

B2: S27D METTL1 1-75, isotope-labelled (domain or fragment, human, UniProt Q9UBP6 1-75, looked up)
chain: B1 chain with S27D
In the case of B2, in test [1], the binding result was “binds”.

These data come from PMC11179147 (Nature, 2023).
